Results taken from article PMC8809517, “Cofactor-independent RNA editing by a synthetic S-type PPR protein”.

T1: GFP-9S library array, motif 4 ND N98L;D124T (synthetic construct, N98L;D124T)
T1 chain: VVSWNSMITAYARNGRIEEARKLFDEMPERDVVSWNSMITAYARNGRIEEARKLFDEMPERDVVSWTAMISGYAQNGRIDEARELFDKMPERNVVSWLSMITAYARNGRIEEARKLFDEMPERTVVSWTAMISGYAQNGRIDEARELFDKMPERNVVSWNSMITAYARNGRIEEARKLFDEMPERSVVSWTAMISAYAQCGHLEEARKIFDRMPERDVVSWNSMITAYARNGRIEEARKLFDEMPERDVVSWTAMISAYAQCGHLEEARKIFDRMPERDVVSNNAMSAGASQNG

T2: GFP-9S library array, motif 4 ND N98M;D124T (synthetic construct, N98M;D124T)
T2 chain: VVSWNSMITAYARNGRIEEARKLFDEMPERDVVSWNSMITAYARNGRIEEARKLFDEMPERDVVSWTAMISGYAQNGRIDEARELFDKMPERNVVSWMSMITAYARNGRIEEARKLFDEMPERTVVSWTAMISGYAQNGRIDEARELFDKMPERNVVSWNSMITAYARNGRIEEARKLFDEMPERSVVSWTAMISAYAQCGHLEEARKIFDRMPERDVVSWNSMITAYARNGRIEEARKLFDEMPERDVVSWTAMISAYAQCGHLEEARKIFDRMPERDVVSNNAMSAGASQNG

T3: GFP-9S library array, motif 4 ND N98Q;D124K (synthetic construct, N98Q;D124K)
T3 chain: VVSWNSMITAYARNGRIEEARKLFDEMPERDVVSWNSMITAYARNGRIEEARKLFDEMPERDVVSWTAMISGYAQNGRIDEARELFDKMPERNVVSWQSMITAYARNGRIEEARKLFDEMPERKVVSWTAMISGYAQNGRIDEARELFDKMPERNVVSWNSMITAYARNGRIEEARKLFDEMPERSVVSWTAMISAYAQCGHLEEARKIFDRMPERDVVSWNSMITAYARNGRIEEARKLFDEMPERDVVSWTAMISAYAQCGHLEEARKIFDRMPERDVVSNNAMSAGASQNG

T4: GFP-9S library array, motif 4 ND N98G;D124M (synthetic construct, N98G;D124M)
T4 chain: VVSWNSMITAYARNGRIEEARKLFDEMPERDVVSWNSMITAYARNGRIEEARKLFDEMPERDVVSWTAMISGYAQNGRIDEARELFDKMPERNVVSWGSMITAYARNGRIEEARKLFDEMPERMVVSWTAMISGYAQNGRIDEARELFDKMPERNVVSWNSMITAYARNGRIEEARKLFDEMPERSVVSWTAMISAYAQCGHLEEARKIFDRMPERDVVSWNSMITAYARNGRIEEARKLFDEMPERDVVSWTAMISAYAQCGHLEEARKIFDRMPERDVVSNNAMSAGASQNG

T5: GFP-9S library array, motif 4 ND N98C;D124C (synthetic construct, N98C;D124C)
T5 chain: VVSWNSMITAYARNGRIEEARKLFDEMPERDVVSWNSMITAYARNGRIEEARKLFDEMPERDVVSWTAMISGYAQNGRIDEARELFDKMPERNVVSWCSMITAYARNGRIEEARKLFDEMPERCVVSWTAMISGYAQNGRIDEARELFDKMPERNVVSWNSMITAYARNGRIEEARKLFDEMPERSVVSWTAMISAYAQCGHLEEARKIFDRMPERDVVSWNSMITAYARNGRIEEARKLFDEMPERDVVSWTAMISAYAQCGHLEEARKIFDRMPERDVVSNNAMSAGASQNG


Tests used:
Assay in all cases: high-throughput RNA pulldown from lysate on Ni-NTA beads; HRP: 50 mM Tris pH 8, 150 mM NaCl, 1 mM beta-mercaptoethanol, 50 ug/ml BSA, 3 ug/ml yeast RNA, 0.5% heparin; ITC and FP: Tris pH 8, 200 mM KCl, 5% glycerol; MST: 50 mM Tris pH 8, 200 mM NaCl, 1 mM DTT, BSA, heparin, 0.05% Tween 20
Settings in all cases: tags: N-terminal His-eGFP
[1] = molecular target: T1, GFP-9S library array, motif 4 ND …
[2] = molecular target: T2, GFP-9S library array, motif 4 ND …
[3] = molecular target: T3, GFP-9S library array, motif 4 ND …
[4] = molecular target: T4, GFP-9S library array, motif 4 ND …
[5] = molecular target: T5, GFP-9S library array, motif 4 ND …

Row | Binder | Kd ([1]; label: 5' Cy5) [nM] | Kd ([2]; label: 5' Cy5) [nM] | Kd ([3]; label: 5' Cy5) [nM] | Kd ([4]; label: 5' Cy5) [nM] | Kd ([5]; label: 5' Cy5) [nM] | Kd ([1]; label: 5' IRDye 800CW) [nM] | Kd ([2]; label: 5' IRDye 800CW) [nM] | Kd ([3]; label: 5' IRDye 800CW) [nM] | Kd ([4]; label: 5' IRDye 800CW) [nM] | Kd ([5]; label: 5' IRDye 800CW) [nM]
1 | AUUAGACGUGA (ssRNA) [Cy5-rpoA-G] | 206 | 115 | 109 | 66 | 70.5 |  |  |  |  | 
2 | AUUAAACGUGA (ssRNA) [IR-rpoA-A] |  |  |  |  |  | 171 | 116 | 257 | 94.3 | 43.7
3 | AUUAUACGUGA (ssRNA) [IR-rpoA-U] |  |  |  |  |  | 19 | 109 | 159 | 149 | 243
4 | AUUACACGUGA (ssRNA) [Cy5-rpoA] | 103 | 124 | 91.3 | 57.8 | 264 |  |  |  |  | 
